Measured values taken from publication PMC9352680, “A comprehensive thermodynamic model for RNA binding by the Saccharomyces cerevisiae Pumilio protein PUF4”.

Molecular target: T1, PUF4 RNA-binding domain (Saccharomyces cerevisiae, UniProt P25339 537-888)
T1 sequence: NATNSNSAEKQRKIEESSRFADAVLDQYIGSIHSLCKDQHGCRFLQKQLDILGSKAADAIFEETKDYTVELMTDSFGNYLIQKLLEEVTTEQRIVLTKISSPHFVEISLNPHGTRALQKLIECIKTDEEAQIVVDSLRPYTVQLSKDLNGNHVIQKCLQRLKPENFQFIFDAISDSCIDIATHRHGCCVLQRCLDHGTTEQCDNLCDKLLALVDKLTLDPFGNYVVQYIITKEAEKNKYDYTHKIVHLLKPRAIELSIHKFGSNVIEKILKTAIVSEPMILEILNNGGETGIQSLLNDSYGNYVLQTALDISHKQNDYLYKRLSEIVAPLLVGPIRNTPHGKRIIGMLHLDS
Experiment: Mg; RNA-MaP; 20 mM Na-HEPES pH 7.4, 30 mM KOAc, 0.75 mM MgCl2, 0.1% Tween-20, 5% glycerol, 0.1 mg/mL BSA, 2 mM DTT; 25 C; 0.0125-409.6 nM protein
Conditions: tags: N-His6-TEV cleaved; C-SNAP kept, Cy3B-labelled; label: tethered on chip by stalled RNA polymerase

B1: Id_ii_S1_P4E.2_K4.1_C4.2_[C-2T]_[T-1C]_H4.1_A4.1_F4.1_T4.2_[G10A]_[T11A] (ssRNA)
RNA: UCUCUUUCUGUAUAUUAAAUCUCUU
Binder B1 has a Kd of 1.06 nM.

B2: Ib_S1_P4E.1_K4.1_C4.1_H4.1_[T3C]_A4.1_[T5A]_F4.1_T4.1 (ssRNA)
RNA: UCUCUUUGCAAAUUAUCUCUU
With B2 the Kd was 926 nM.

B3: Id_ii_S1_P4E.2_K4.1_C4.2_[C-2T]_[T-1A]_H4.1_A4.1_F4.1_T4.2_[G10A]_[T11C] (ssRNA)
RNA: UCUCUUUAUGUAUAUUAACUCUCUU
B3 gave a Kd of 1.35 nM.

B4: Id_ii_S1_P4E.2_K4.1_C4.2_[C-2A]_[T-1C]_H4.1_A4.1_F4.1_T4.2_[G10T]_[T11C] (ssRNA)
RNA: UCUCUUACUGUAUAUUAUCUCUCUU
With B4 the Kd was 1.4 nM.

B5: Id_ii_S1_P4E.2_K4.1_C4.2_[C-2T]_[T-1A]_H4.1_A4.1_F4.1_T4.2_[G10T] (ssRNA)
RNA: UCUCUUUAUGUAUAUUAUUUCUCUU
B5 was tested, and the Kd was 1.07 nM.

B6: Id_ii_S1_P4E.2_K4.1_C4.2_[C-2T]_[T-1C]_H4.1_A4.1_F4.1_T4.2_[G10C]_[T11C] (ssRNA)
RNA: UCUCUUUCUGUAUAUUACCUCUCUU
In the case of B6, the Kd is reported as 0.848 nM.

B7: Id_ii_S1_P4E.2_K4.1_C4.2_[C-2T]_[T-1C]_H4.1_A4.1_F4.1_T4.2_[G10T]_[T11C] (ssRNA)
RNA: UCUCUUUCUGUAUAUUAUCUCUCUU
B7 gave a Kd of 0.77 nM.

B8: Id_ii_S1_P4E.2_K4.1_C4.2_[C-2A]_[T-1G]_H4.1_A4.1_F4.1_T4.2_[G10T] (ssRNA)
RNA: UCUCUUAGUGUAUAUUAUUUCUCUU
With B8 the Kd was 2.57 nM.

B9: Id_ii_S1_P4E.2_K4.1_C4.2_[C-2T]_H4.1_A4.1_F4.1_T4.2_[G10T]_[T11C] (ssRNA)
RNA: UCUCUUUUUGUAUAUUAUCUCUCUU
B9 was tested, and the Kd was 0.856 nM.

B10: Id_ii_S1_P4E.2_K4.1_C4.2_[C-2T]_[T-1G]_H4.1_A4.1_F4.1_T4.2_[G10A]_[T11A] (ssRNA)
RNA: UCUCUUUGUGUAUAUUAAAUCUCUU
With B10 the Kd was 1.47 nM.

B11: Id_ii_S1_P4E.2_K4.1_C4.2_[C-2T]_[T-1A]_H4.1_A4.1_F4.1_T4.2_[G10C]_[T11C] (ssRNA)
RNA: UCUCUUUAUGUAUAUUACCUCUCUU
With B11 the Kd was 0.854 nM.

B12: Id_ii_S1_P4E.2_K4.1_C4.2_[C-2T]_H4.1_A4.1_F4.1_T4.2_[T11G] (ssRNA)
RNA: UCUCUUUUUGUAUAUUAGGUCUCUU
For B12, the Kd was 0.884 nM.

B13: Id_ii_S1_P4E.2_K4.1_C4.2_[C-2A]_[T-1C]_H4.1_A4.1_F4.1_T4.2_[G10A]_[T11C] (ssRNA)
RNA: UCUCUUACUGUAUAUUAACUCUCUU
Work on B13 yielded a Kd of 1.47 nM.

B14: Id_ii_S1_P4E.2_K4.1_C4.2_[C-2T]_[T-1G]_H4.1_A4.1_F4.1_T4.2_[G10T]_[T11C] (ssRNA)
RNA: UCUCUUUGUGUAUAUUAUCUCUCUU
Work on B14 yielded a Kd of 1.06 nM.

B15: Id_ii_S1_P4E.2_K4.1_C4.2_[C-2T]_H4.1_A4.1_F4.1_T4.2_[G10A] (ssRNA)
RNA: UCUCUUUUUGUAUAUUAAUUCUCUU
With B15 the Kd was 1.09 nM.

B16: Id_ii_S1_P4E.2_K4.1_C4.2_[C-2T]_[T-1C]_H4.1_A4.1_F4.1_T4.2_[G10A]_[T11G] (ssRNA)
RNA: UCUCUUUCUGUAUAUUAAGUCUCUU
With B16 the Kd was 2.74 nM.

B17: Ic_S1_P4E.1_K4.1_C4.1_H4.1_A4.1_[T7C]_F4.1_T4.1 (ssRNA)
RNA: UCUCUUUGUAUACUAUCUCUU
B17 gave a Kd of 0.741 nM.

B18: Ib_S1_P4E.1_K4.1_C4.1_H4.1_[T3C]_A4.1_[A6C]_F4.1_T4.1 (ssRNA)
RNA: UCUCUUUGCAUCUUAUCUCUU
For B18, the Kd was > 2300 nM.

B19: Id_ii_S1_P4E.2_K4.1_C4.2_[C-2T]_[T-1C]_H4.1_A4.1_F4.1_T4.2 (ssRNA)
RNA: UCUCUUUCUGUAUAUUAGUUCUCUU
B19 showed a Kd of 0.308 nM.

B20: Id_ii_S1_P4E.2_K4.1_C4.2_[C-2T]_H4.1_A4.1_F4.1_T4.2_[T11C] (ssRNA)
RNA: UCUCUUUUUGUAUAUUAGCUCUCUU
B20 gave a Kd of 0.413 nM.

B21: Id_ii_S1_P4E.2_K4.1_C4.2_[C-2A]_[T-1C]_H4.1_A4.1_F4.1_T4.2_[G10T] (ssRNA)
RNA: UCUCUUACUGUAUAUUAUUUCUCUU
In the case of B21, the Kd is reported as 1.39 nM.

B22: Id_ii_S1_P4E.2_K4.1_C4.2_[C-2T]_H4.1_A4.1_F4.1_T4.2_[G10C] (ssRNA)
RNA: UCUCUUUUUGUAUAUUACUUCUCUU
B22 showed a Kd of 0.909 nM.

B23: Id_ii_S1_P4E.2_K4.1_C4.2_[C-2T]_[T-1A]_H4.1_A4.1_F4.1_T4.2_[G10A]_[T11A] (ssRNA)
RNA: UCUCUUUAUGUAUAUUAAAUCUCUU
In the case of B23, the Kd is reported as 1.94 nM.

B24: Ib_S1_P4E.1_K4.1_C4.1_H4.1_[T3C]_A4.1_[A6G]_F4.1_T4.1 (ssRNA)
RNA: UCUCUUUGCAUGUUAUCUCUU
In the case of B24, the Kd is reported as 2150 nM.

B25: Id_ii_S1_P4E.2_K4.1_C4.2_[C-2T]_[T-1A]_H4.1_A4.1_F4.1_T4.2_[T11C] (ssRNA)
RNA: UCUCUUUAUGUAUAUUAGCUCUCUU
With B25 the Kd was 0.465 nM.

B26: Id_ii_S1_P4E.2_K4.1_C4.2_[C-2T]_[T-1G]_H4.1_A4.1_F4.1_T4.2_[G10A] (ssRNA)
RNA: UCUCUUUGUGUAUAUUAAUUCUCUU
Binder B26 has a Kd of 1.63 nM.

B27: Id_ii_S1_P4E.2_K4.1_C4.2_[C-2A]_[T-1C]_H4.1_A4.1_F4.1_T4.2_[G10C] (ssRNA)
RNA: UCUCUUACUGUAUAUUACUUCUCUU
B27 was tested, and the Kd was 1.6 nM.

B28: Id_ii_S1_P4E.2_K4.1_C4.2_[C-2T]_H4.1_A4.1_F4.1_T4.2_[G10T] (ssRNA)
RNA: UCUCUUUUUGUAUAUUAUUUCUCUU
Binder B28 has a Kd of 0.679 nM.

B29: Id_ii_S1_P4E.2_K4.1_C4.2_[C-2T]_[T-1G]_H4.1_A4.1_F4.1_T4.2 (ssRNA)
RNA: UCUCUUUGUGUAUAUUAGUUCUCUU
Work on B29 yielded a Kd of 0.304 nM.

B30: Id_ii_S1_P4E.2_K4.1_C4.2_[C-2T]_[T-1C]_H4.1_A4.1_F4.1_T4.2_[G10T] (ssRNA)
RNA: UCUCUUUCUGUAUAUUAUUUCUCUU
In the case of B30, the Kd is reported as 0.502 nM.

B31: Ib_S1_P4E.1_K4.1_C4.1_H4.1_[T3C]_A4.1_[T5C]_F4.1_T4.1 (ssRNA)
RNA: UCUCUUUGCACAUUAUCUCUU
In the case of B31, the Kd is reported as 36.2 nM.
